Among the data in PMC9512828 are response values, retold here.

B1: PTH1R-WT coupled to a C-terminal HaloTag (parathyroid hormone 1 receptor) [not stated] / β-arrestin1 WT C-terminally fused to Nanoluciferase [not stated] (parent)
chain 1: MGDKGTRVFKKASPNGKLTVYLGKRDFVDHIDLVDPVDGVVLVDPEYLKERRVYVTLTCAFRYGREDLDVLGLTFRKDLFVANVQSFPPAPEDKKPLTRLQERLIKKLGEHAYPFTFEIPPNLPCSVTLQPGPEDTGKACGVDYEVKAFCAENLEEKIHKRNSVRLVIRKVQYAPERPGPQPTAETTRQFLMSDKPLHLEASLDKEIYYHGEPISVNVHVTNNTNKTVKKIKISVRQYADICLFNTAQYKCPVAMEEADDTVAPSSTFCKVYTLTPFLANNREKRGLALDGKLKHEDTNLASSTLLREGANREILGIIVSYKVKVKLVVSRGGLLGDLASSDVAVELPFTLMHPKPKEEPPHREVPENETPVDTNLIELDTNDDDIVFEDFARQRLKGMKDDKEEEEDGTGSPQLNNR
chain 2: DADDVMTKEEQIFLLHRAQAQCEKRLKEVLQRPASIMESDKGWTSASTSGKPRKDKASGKLYPESEEDKEAPTGSRYRGRPCLPEWDHILCWPLGAPGEVVAVPCPDYIYDFNHKGHAYRRCDRNGSWELVPGHNRTWANYSECVKFLTNETREREVFDRLGMIYTVGYSVSLASLTVAVLILAYFRRLHCTRNYIHMHLFLSFMLRAVSIFVKDAVLYSGATLDEAERLTEEELRAIAQAPPPPATAAAGYAGCRVAVTFFLYFLATNYYWILVEGLYLHSLIFMAFFSEKKYLWGFTVFGWGLPAVFVAVWVSVRATLANTGCWDLSSGNKKWIIQVPILASIVLNFILFINIVRVLATKLRETNAGRCDTRQQYRKLLKSTLVLMPLFGVHYIVFMATPYTEVSGTLWQVQMHYEMLFNSFQGFFVAIIYCFCNGEVQAEIKKSWSRWTLALDFKRKARSGSSSYSYGPMVSHTSVTNVGPRVGLGLPLSPRLLPTATTNGHPQLPGHAKPGTPALETLETTPPAMAAPKDDGFLNGSCSGLDEEASGPERPPALLQEEWETVM
B2: PTH1R-WT coupled to a C-terminal HaloTag (parathyroid hormone 1 receptor) [not stated] / β-arrestin2 WT C-terminally fused to Nanoluciferase [not stated] (parent)
chain 1: MGEKPGTRVFKKSSPNCKLTVYLGKRDFVDHLDKVDPVDGVVLVDPDYLKDRKVFVTLTCAFRYGREDLDVLGLSFRKDLFIANYQAFPPTPNPPRPPTRLQERLLRKLGQHAHPFFFTIPQNLPCSVTLQPGPEDTGKACGVDFEIRAFCAKSLEEKSHKRNSVRLVIRKVQFAPEKPGPQPSAETTRHFLMSDRSLHLEASLDKELYYHGEPLNVNVHVTNNSTKTVKKIKVSVRQYADICLFSTAQYKCPVAQVEQDDQVSPSSTFCKVYTITPLLSNNREKRGLALDGKLKHEDTNLASSTIVKEGANKEVLGILVSYRVKVKLVVSRGGDVSVELPFVLMHPKPHDHIALPRPQSAATHPPTLLPSAVPETDAPVDTNLIEFETNYATDDDIVFEDFARLRLKGLKDEDYDDQFC
chain 2: B1 chain 2
B3: PTH1R-WT coupled to a C-terminal HaloTag (parathyroid hormone 1 receptor) [not stated] / β-arrestin2-dFLR (finger-loop region Y64 to K78 deleted) C-terminally fused to Nanoluciferase [not stated] (parent)
chain 1: MGEKPGTRVFKKSSPNCKLTVYLGKRDFVDHLDKVDPVDGVVLVDPDYLKDRKVFVTLTCAFRDLFIANYQAFPPTPNPPRPPTRLQERLLRKLGQHAHPFFFTIPQNLPCSVTLQPGPEDTGKACGVDFEIRAFCAKSLEEKSHKRNSVRLVIRKVQFAPEKPGPQPSAETTRHFLMSDRSLHLEASLDKELYYHGEPLNVNVHVTNNSTKTVKKIKVSVRQYADICLFSTAQYKCPVAQVEQDDQVSPSSTFCKVYTITPLLSNNREKRGLALDGKLKHEDTNLASSTIVKEGANKEVLGILVSYRVKVKLVVSRGGDVSVELPFVLMHPKPHDHIALPRPQSAATHPPTLLPSAVPETDAPVDTNLIEFETNYATDDDIVFEDFARLRLKGLKDEDYDDQFC
chain 2: B1 chain 2
B4: PTH1R-WT coupled to a C-terminal HaloTag (parathyroid hormone 1 receptor) [not stated] / β-arrestin1-dFLR (finger-loop region Y63 to K77 deleted) C-terminally fused to Nanoluciferase [not stated] (parent)
chain 1: MGDKGTRVFKKASPNGKLTVYLGKRDFVDHIDLVDPVDGVVLVDPEYLKERRVYVTLTCAFRDLFVANVQSFPPAPEDKKPLTRLQERLIKKLGEHAYPFTFEIPPNLPCSVTLQPGPEDTGKACGVDYEVKAFCAENLEEKIHKRNSVRLVIRKVQYAPERPGPQPTAETTRQFLMSDKPLHLEASLDKEIYYHGEPISVNVHVTNNTNKTVKKIKISVRQYADICLFNTAQYKCPVAMEEADDTVAPSSTFCKVYTLTPFLANNREKRGLALDGKLKHEDTNLASSTLLREGANREILGIIVSYKVKVKLVVSRGGLLGDLASSDVAVELPFTLMHPKPKEEPPHREVPENETPVDTNLIELDTNDDDIVFEDFARQRLKGMKDDKEEEEDGTGSPQLNNR
chain 2: B1 chain 2

One test covers variants of B1. Kind of test: NanoBRET recruitment assay in living cells. The conditions noted are these: with β-arrestin1 WT C-terminally fused to Nanoluciferase; HEK-WT + EV; point at the highest PTH(1-34) concentration (about 3 µM); parent: 5.9; read off a plot. (Bioluminescence resonance energy transfer reports proximity on the nanometre scale.)
Take chain 2 S475A T477A S478A T480A: the response was determined as 2.9 fold change.

chain 2 S463A S465A S466A S467A S469A: the response was determined as 5.8 fold change.

Still in this test, the particulars now being: with β-arrestin1 WT C-terminally fused to Nanoluciferase; HEK-WT cells; point at the highest PTH(1-34) concentration (about 3 µM); parent: 5.9; read off a plot.
Take chain 2 S475A T477A S478A T480A: the response was 2.9 fold change.

Consider chain 2 S463A S465A S466A S467A S469A, for which the response was determined as 5.9 fold change.

Staying with this test, now noted: with β-arrestin1 WT C-terminally fused to Nanoluciferase; ΔQ-GRK + EV; point at the highest PTH(1-34) concentration (about 3 µM); parent: 1.4; read off a plot.
Take chain 2 S475A T477A S478A T480A: the response is 2 fold change.

As for chain 2 S463A S465A S466A S467A S469A, the response was found to be 1.7 fold change.

Still in this test, the particulars now being: with β-arrestin1 WT C-terminally fused to Nanoluciferase; ΔQ-GRK + GRK2; point at the highest PTH(1-34) concentration (about 3 µM); parent: 5.3; read off a plot.
Take chain 2 S475A T477A S478A T480A: the response is 2.7 fold change.

Turning to chain 2 S463A S465A S466A S467A S469A, the response amounted to 6.3 fold change.

The variants in the next test derive from B2. Kind of test: NanoBRET recruitment assay in living cells. To be noted: with β-arrestin2 WT C-terminally fused to Nanoluciferase; HEK-WT + EV; point at the highest PTH(1-34) concentration (about 3 µM); parent: 7.5; read off a plot.
For chain 2 S463A S465A S466A S467A S469A, the response came out at 6 fold change.

chain 2 S475A T477A S478A T480A: the response is 3.4 fold change.

Still in this test, the particulars now being: with β-arrestin2 WT C-terminally fused to Nanoluciferase; HEK-WT cells; point at the highest PTH(1-34) concentration (about 3 µM); parent: 7.3; read off a plot.
With chain 2 S463A S465A S466A S467A S469A, the response worked out at 6 fold change.

For chain 2 S475A T477A S478A T480A, the response came to 3.4 fold change.

The test is the same for the next values; noted with them: with β-arrestin2 WT C-terminally fused to Nanoluciferase; ΔQ-GRK + EV; point at the highest PTH(1-34) concentration (about 3 µM); parent: 1.7; read off a plot.
On to chain 2 S463A S465A S466A S467A S469A, for which the response turned out to be 1.8 fold change.

For chain 2 S475A T477A S478A T480A, the response came out at 1.9 fold change.

The same test, now with this note: with β-arrestin2 WT C-terminally fused to Nanoluciferase; ΔQ-GRK + GRK2; point at the highest PTH(1-34) concentration (about 3 µM); parent: 5; read off a plot.
Consider chain 2 S463A S465A S466A S467A S469A, for which the response came to 4.8 fold change.

For the variant chain 2 S475A T477A S478A T480A, the response was 3.2 fold change.

The next test covers variants of B3. Kind of test: NanoBRET recruitment assay in living cells. The conditions noted are these: with β-arrestin2-dFLR (finger-loop region Y64 to K78 deleted) C-terminally fused to Nanoluciferase; HEK-WT + EV; point at the highest PTH(1-34) concentration (about 3 µM); partner is β-arrestin2-dFLR; parent: 1.4; read off a plot.
For the variant chain 2 S475A T477A S478A T480A, the response came to 0.95 fold change.

Consider chain 2 S463A S465A S466A S467A S469A, for which the response was 1.4 fold change.

Still in this test, the particulars now being: with β-arrestin2-dFLR (finger-loop region Y64 to K78 deleted) C-terminally fused to Nanoluciferase; ΔQ-GRK + EV; point at the highest PTH(1-34) concentration (about 3 µM); partner is β-arrestin2-dFLR; parent: 1; read off a plot.
Turning to chain 2 S475A T477A S478A T480A, the response stood at 0.95 fold change.

In the case of chain 2 S463A S465A S466A S467A S469A, the response stood at 1 fold change.

Staying with this test, now noted: with β-arrestin2-dFLR (finger-loop region Y64 to K78 deleted) C-terminally fused to Nanoluciferase; ΔQ-GRK + GRK2; point at the highest PTH(1-34) concentration (about 3 µM); partner is β-arrestin2-dFLR; parent: 1.3; read off a plot.
On to chain 2 S475A T477A S478A T480A, for which the response was found to be 0.95 fold change.

As for chain 2 S463A S465A S466A S467A S469A, the response was 1.3 fold change.

In a further test the parent is B4. Kind of test: NanoBRET recruitment assay in living cells. The conditions noted are these: with β-arrestin1-dFLR (finger-loop region Y63 to K77 deleted) C-terminally fused to Nanoluciferase; HEK-WT + EV; point at the highest PTH(1-34) concentration (about 3 µM); partner is β-arrestin1-dFLR; parent: 2.8; read off a plot.
With chain 2 S463A S465A S466A S467A S469A, the response amounted to 2.6 fold change.

For the variant chain 2 S475A T477A S478A T480A, the response came to 1.1 fold change.

Staying with this test, now noted: with β-arrestin1-dFLR (finger-loop region Y63 to K77 deleted) C-terminally fused to Nanoluciferase; ΔQ-GRK + EV; point at the highest PTH(1-34) concentration (about 3 µM); partner is β-arrestin1-dFLR; parent: 1; read off a plot.
Consider chain 2 S463A S465A S466A S467A S469A, for which the response was 1 fold change.

In the case of chain 2 S475A T477A S478A T480A, the response amounted to 1 fold change.

Staying with this test, now noted: with β-arrestin1-dFLR (finger-loop region Y63 to K77 deleted) C-terminally fused to Nanoluciferase; ΔQ-GRK + GRK2; point at the highest PTH(1-34) concentration (about 3 µM); partner is β-arrestin1-dFLR; parent: 2.3; read off a plot.
chain 2 S463A S465A S466A S467A S469A: the response was 2.1 fold change.

For the variant chain 2 S475A T477A S478A T480A, the response came out at 1.1 fold change.
